Changes are numbered by the printed parent chain.
B1: antibody 1030 (antibody, human IgG1, kappa, V domains shown)
VH: EVQLVESGGGLVKPGGSLKLSCAASGFTFSSYALSWVRQTPERRLEWVASISGVGSTYFPDSVKGRFTMSRDNARNILYLQMSSLRSEDTAMYYCARGSDGYFYAMDYWGQGTSVTVSS
VL: DIVLTQSPASLAVSLGQRATISCRASKSVSTSGYSFMHWYQLKPGQPPKLLIYLASNLESGVPARFSGSGSGTDFTLNIHPVEEEDAATYYCQHSREFPLTFGGGTKLEIKR
notes: Chimeric IgG1 kappa
B2: antibody 1344 (antibody, human IgG1, kappa, V domains shown)
VH: QVQLKESGPGLVAPSQSLSITCTVSGFSLTIYGVHWVRQPPGKGLEWLGVIWAGGNTNYNSALMSRLSISKDNSKSQVFLKMNSLQTDDTAMYFCARGYGYNLDYWGQGTTLTVSS
VL: DIQMTQTTSSLSASLGDRVTISCSASQGISNYLNWYQQKPDGTVKLLIYYTSSLHSGVPSRFSGSGSGTDYSLTISNLEPEDIATYYCQQYSKLPYTFGGGTKLEIKR
notes: Chimeric IgG1 kappa
B3: antibody 1320 (antibody, human IgG1, kappa, V domains shown)
VH: QVQLQQPGAELVKPGASMKLSCKASGYTFTNYWMHWVKQRPGQGLEWIGEINPSNGRTNYNEKFKSKATLTVDKSSSTAYMQLSSLTSEDSGVYYCAKGGNYYDYDWDYWGQGTTLTVSS
VL: B2 VL with G28D, Y50H, S53T, Y96W
notes: Chimeric IgG1 kappa
B4: antibody 1024 (antibody, human IgG1, kappa, V domains shown)
VH: QVQLQQPGAELVEPGGSVKLSCKASGYTFTSHWMHWVKQRPGQGLEWIGEINPSSGRNNYNEKFKSKATLTVDKSSSTAYMQFSSLTSEDSAVYYCVRYYGYDEAMDYWGQGTSVTVSS
VL: DIVMTQAAFSNPVTLGTSASISCRSSKSLLHSNGITYLYWYLQKPGQSPQLLIYQMSNLASGVPDRFSSSGSGTDFTLRISRVEAEDVGVYYCAQNLELPYTFGGGTKLEIKR
notes: Chimeric IgG1 kappa
B5: antibody 1208 (antibody, human IgG1, kappa, V domains shown)
VH: EVQLVESGGGLVKPGGSLKLSCAASGFAFSSYDMSWVRQTPEKRLEWVAYIGSGDDNTHYPDSVKGRFTISRHNAKNTLYLQMSSLKSEDTAMYYCARQKYGNYGDTMDYWGQGTSVTVSS
VL: DVVMTQTPLSLPVSLGDQASISCRSSQSLVHSNGNTYLHWYLQKPGQSPKLLIYKVSNRFSGVPDRFSGSGSGTDFTLKISRVEAEDLGVYFCSQSTHVPTFGGGTKLEIKR
notes: Chimeric IgG1 kappa; also called clone 1208
B6: antibody 1347 (antibody, human IgG1, kappa, V domains shown)
VH: QVQLKESGPGLVAPSQSLSITCTVSGFSLTGHGVNWVRQPPGKGLEWLGMIWGDGSTDYNSTLKSRLSISKDNSKSQVFLKMNSLQTDDTARYYCARGYGYLYYFDYWGQGTTLTVSS
VL: ENVLTQSPAIMSASPGEKVTMTCRASSSVSSSYLHWYQQKSGASPKLWIYSTSNLASGVPARFSGSGSGTSYSLTVNSVETEDAATYYCHQYSGFPFTFGSGTKLELKR
notes: Chimeric IgG1 kappa
B7: antibody 992 (antibody, human IgG1, kappa, V domains shown)
VH: EVQLQQPGSELVRPGASVKLSCKASGYTFTSYWMHWVKQRPGQGLEWIGNIYPGSRSTNYDEKFKSKATLTVDTSSSTAYMQLSSLTSEDSAVYYCTRNGDYYVSSGDAMDYWGQGTSVTVSS
VL: DIQMTQTTSSLSASLGDRVTISCRTSQDIGNYLNWYQQKPDGTVKLLIYYTSRLHSGVPSRFSGSGSGTDFSLTINNVEQEDVATYFCQHYNTVPPTFGGGTKLEIKR
notes: Chimeric mouse/human IgG1 kappa; the VL entry includes the human kappa constant region

Columns and labels:
[1] = target: T1, recombinant human EGFR extracellular domain with 6xHis (human, UniProt P00533 25-645); experiment: SPR (BIAcore 2000); IgG captured on anti-human Fc, soluble monovalent EGFR ECD injected
T1 construct: In-house produced; also called 6xHis EGFR ECD; soluble human EGFR ECD; not shown: 6xHis tag
Method: Kinetic analysis of the full length IgG antibodies of the invention was performed on a BIAcore 2000, employing an assay as described in (Canziani, Klakamp, et al. 2004, Anal. Biochem, 325:301-307) allowing measurement of monovalent affinities of whole IgG molecules against soluble antigen. […] The chip surface was regenerated in between cycles by stripping the captured antibody/antigen complexes with a 10 second injection of 100 mM H₃PO₄. […] The association rate constant (ka) and dissociation constant (kd) were evaluated globally from the generated sensograms with the BIA evaluation software 4.1 provided by the manufacturer.

[2] = target: T2, wild type full length EGFR purified from A431 cells (human, UniProt P00533 25-1210); experiment: competition ELISA, competitor Ab-5; parameters: concentration or dose not given beside the values
T2 construct: mature; Bought; coated on ELISA wells; also called full length EGFR receptor antigen; Sigma E3641
Method: (§1) The ELISA was adapted from the descriptions published in Ditzel et al, 1995, The Journal of Immunology, Vol 154, Issue 2 893-906.
(§2) An epitope blocking ELISA was performed by diluting full length EGFR receptor antigen to 0.5 μg/ml in PBS; and coating 50 μl/ELISA well overnight at 4° C. […] Finally wells were washed four times with PBS-T and plates were developed by adding 50 μl/well TMB and read at 620 nm every 5-15-30 min. The degree of inhibition was calculated from the formula: % inhibition=(1−(OD competition/OD no competition (PBS)))×100.

[3] = target: T1, recombinant human EGFR extracellular …; experiment: SPR competition, competitor 1449
Method: (§3) SPR analysis was performed on a Biacore 3000 machine containing four flow cells. A CM5 Biacore chip was conjugated with 10,000 Resonance units (Ru) polyclonal anti-His antibody to flow cells 1-4 according to the manufacturer's instructions. […] Immediately after antigen injection the maximal binding of the Anti-EGFR mAb without competition was established in each flow cell during a reference run. Briefly 5 μl antibody at a concentration of 40 μg/ml was injected over all flow cells with captured EGFR followed by stripping of the antibody/antigen complex with a low pH acid wash (10 sec. contact time with 10 mM Glycine-HCl, pH2). After the determination of Anti-EGFR antibody maximal binding to each flow cell, a competition run was performed during the same Biacore cycle. Flow cells were first saturated with EGFR ECD antigen followed by injection of different reference antibodies or Anti-EGFR antibodies into separate flow cells using the same antigen saturating conditions as outlined above. This step was immediately followed by a second injection of Anti-EGFR antibody over the flow cell saturated with EGFR antigen and competition antibody to minimize the dissociation of either antigen or blocking antibody. Then the antibody/antigen complexes were stripped off with a low pH acid wash (10 sec. contact time with 10 mM Glycine-HCl, pH 2) and the whole cycle beginning with the reference run was repeated with a new Anti-EGFR antibody. The degree of inhibition of tested Anti-EGFR antibodies were determined by comparing the Ru max value of the individual Anti-EGFR antibody before and after competition by introduction of report points recorded two seconds before and after injection of each sample.

[4] = target: T2, wild type full length EGFR purified …; experiment: competition ELISA, competitor Ab-2; parameters: concentration or dose not given beside the values
Method: as §1, §2

[5] = target: T1, recombinant human EGFR extracellular …; experiment: SPR competition, competitor 1308
Method: as §3

[6] = target: T3, Cynomolgus EGFR extracellular domain (Cynomolgus monkey (Macaca fascicularis), UniProt P55245 25-645 (rhesus entry)); experiment: ELISA on cynomolgus EGFR ECD (Example 10)
T3 construct: Cloned without signal peptide; also called Cynomolgus rEGFR ECD; Cynomolgus EGFR ECD
Method in brief: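 Wells coated overnight at 4 °C with 1 μg/ml EGFR protein, then given serial four-fold antibody dilutions from 1 μg/ml for 1 h at room temperature. Binding detected with streptavidin-HRP and TMB, read at OD 450 nm.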

[7] = target: T2, wild type full length EGFR purified …; experiment: competition ELISA, competitor ICR10; parameters: concentration or dose not given beside the values
Method: as §1, §2

[8] = target: T2, wild type full length EGFR purified …; experiment: competition ELISA, competitor Ab-1; parameters: concentration or dose not given beside the values
Method: as §1, §2

[9] = target: T2, wild type full length EGFR purified …; experiment: competition ELISA, competitor Ab-10; parameters: concentration or dose not given beside the values
Method: as §1, §2

[10] = target: T2, wild type full length EGFR purified …; experiment: competition ELISA, competitor Ab-11; parameters: concentration or dose not given beside the values
Method: as §1, §2

[11] = target: T2, wild type full length EGFR purified …; experiment: competition ELISA, competitor Ab-3; parameters: concentration or dose not given beside the values
Method: as §1, §2

[12] = target: T4, EGFRvIII (deletion mutant EGFR) (human, UniProt P00533 25-645, limits assumed); experiment: EGFRvIII ELISA (Example 1)
T4 construct: also called deltaEGFR; rhEGFRvIII

| Binder | Kd [1] | koff [1] | kon [1] | t1/2 [1] | % inhibition [2] | % inhibition [3] | % inhibition [4] | % inhibition [5] | binding result [6] | % inhibition [7] | % inhibition [8] | % inhibition [9] | % inhibition [10] | % inhibition [11] | binding result [12] |
| --- | --- | --- | --- | --- | --- | --- | --- | --- | --- | --- | --- | --- | --- | --- | --- |
| B1 | 29.2 nM | 0.00037 s⁻¹ | 13000 M⁻¹ s⁻¹ | 31.1 min | 92% | 4% | -1% | -12% | binds | 12% | 91% | 92% | -20% | -35% | – |
| B2 | – | – | – | – | 28% | – | 14% | 73% | binds | 82% | 19% | 36% | 82% | 40% | no binding |
| B3 | 24.2 nM | 0.0028 s⁻¹ | 120000 M⁻¹ s⁻¹ | 4.1 min | 6% | 50% | -9% | -2% | no binding | 2% | 9% | 7% | 8% | 0% | – |
| B4 | 26.7 nM | 0.0049 s⁻¹ | 180000 M⁻¹ s⁻¹ | 2.4 min | 12% | 78% | 75% | -3% | – | 11% | 3% | 27% | 18% | 11% | – |
| B5 | – | – | – | – | 84% | – | 20% | 5% | – | -21% | 82% | 89% | -3% | -10% | – |
| B6 | 21.4 nM | 0.0005 s⁻¹ | 24000 M⁻¹ s⁻¹ | 22.9 min | – | – | – | 82% | binds | – | – | – | – | – | no binding |
| B7 | – | – | – | 0.2 min | -3% | 98% | 77% | -9% | – | -20% | 78% | -14% | -2% | -21% | – |
